Laboratory results reported in US20100003258A1 (AVEO PHARMACEUTICALS, published 2010).

Tests used:
[1] = biological target: T1, recombinant human FGFR3 IIIc Fc fusion protein (human, UniProt P22607 23-375); experiment: SPR (Biacore T100), antibody captured on anti-mouse Ig, rhFGFR3 IIIc Fc as analyte, 37 C
T1 construct: Bought reagent; also called rhFGFR3 IIIc Fc; not shown: Fc fragment (removable by Factor Xa)
T1 sequence (looked up): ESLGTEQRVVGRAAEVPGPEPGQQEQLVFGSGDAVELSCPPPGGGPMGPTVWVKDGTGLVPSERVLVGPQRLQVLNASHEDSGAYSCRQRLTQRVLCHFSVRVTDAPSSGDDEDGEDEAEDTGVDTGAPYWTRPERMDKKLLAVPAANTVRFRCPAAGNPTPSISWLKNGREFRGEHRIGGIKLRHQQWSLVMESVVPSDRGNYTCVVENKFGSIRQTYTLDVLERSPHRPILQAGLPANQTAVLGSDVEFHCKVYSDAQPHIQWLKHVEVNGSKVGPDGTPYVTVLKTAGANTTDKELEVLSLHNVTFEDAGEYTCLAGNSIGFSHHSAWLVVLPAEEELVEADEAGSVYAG
Protocol: The binding affinities and kinetics of interaction of the monoclonal antibodies (15D8, 27H2, 2G4, and 4E7(7D12)) produced in Example 1 against recombinant human FGFR3 (IIIb and IIIc isoforms) Fc fusion protein (rhFGFR3 IIIb Fc or rhFGFR3 IIIc Fc) were measured by surface plasmon resonance using a Biacore™ T100 (Biacore) instrument.
Rabbit anti-mouse immunoglobulins (Biacore, Catalog No. BR-1005-14) were immobilized on carboxymethylated dextran CM4 sensor chips (Biacore, Catalog No. BR-1005-34) by amine coupling (Biacore, Catalog No. BR-1000-50) using a standard coupling protocol according to manufacturer's instructions.
The antibodies were captured in an individual flow cell at a flow rate of 10 μl/min. Injection time was varied for each antibody to yield approximately 40-50 RU of antibody captured for each cycle. Buffer or rhFGFR3 IIIb Fc (R&D Systems, Catalog No. 1264-FR-050) or rhFGFR3 IIIc Fc (R&D Systems, Catalog No. 766-FR-050) diluted in running buffer was injected sequentially over a reference surface (no antibody captured) and the active surface (antibody to be tested) for 300 sec at 60 μl/min. The dissociation phase was monitored for 30 minutes. The surface was then regenerated with two 60-seconds injection of 10 mM Glycine-HCl, pH 1.7 (made from Glycine pH 1.5 (Biacore, Catalog No. BR-1003-54) and pH 2.0 (Biacore, Catalog No. BR-1003-55)) at a flow rate of 60 μl/min. rhFGFR3 Fc concentrations tested were 0.62 nM to 40 nM.

[2] = biological target: T2, recombinant human FGFR3 IIIb Fc fusion protein (human, UniProt P22607-2 23-377, limits assumed); experiment: ECL competition assay: inhibition of rhFGFR3 IIIb Fc binding to coated FGF1 (competitor FGF1)
T2 construct: Bought reagent; the IIIb splice isoform is meant; also called rhFGFR3 IIIb Fc; hFGFR3 IIIb; not shown: Fc fragment (removable by Factor Xa, detected with anti-human IgG)
T2 sequence (looked up): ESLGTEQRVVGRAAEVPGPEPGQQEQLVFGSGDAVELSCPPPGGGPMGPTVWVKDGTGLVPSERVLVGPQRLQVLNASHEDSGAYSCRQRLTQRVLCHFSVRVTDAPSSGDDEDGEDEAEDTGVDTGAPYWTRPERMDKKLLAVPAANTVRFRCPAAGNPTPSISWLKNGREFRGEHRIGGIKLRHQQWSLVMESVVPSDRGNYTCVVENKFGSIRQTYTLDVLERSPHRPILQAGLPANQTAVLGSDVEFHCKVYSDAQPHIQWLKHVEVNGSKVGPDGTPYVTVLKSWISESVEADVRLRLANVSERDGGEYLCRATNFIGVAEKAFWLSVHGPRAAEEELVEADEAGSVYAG
Protocol: The antibodies were tested by ECL (Electrochemiluminescence) assay for inhibition of hFGFR3 IIIB binding to FGF-1. […] The plates then were washed 3 times with PBS and blocked with 200 μl of PBS containing 5% BSA (Sera Care Life Sciences, Catalog No. AP-4510-80) and 5 μg/mL heparin (Sigma, Catalog No. H4784) for 1 hour at room temperature. The antibodies (concentration range: 0.029-30 μg/mL) were incubated for 1 hour at room temperature with 1.7 μg/mL rhFGFR3 IIIb Fc (R&D Systems, Catalog No. 1264-FR-050) and 5 μg/mL heparin. After washing the plates 3 times with PBS, 25 μl of the antibody-receptor mixture was added to the plates for another hour at room temperature with agitation. The plates were washed three times with PBS and incubated with 25 μl of 1 μg/mL ST-anti-human IgG antibody (Meso Scale Discovery, Catalog No. R32AJ-1) for 1 hour at room temperature with agitation. The plates then were washed 3 times with PBS, and 150 μl of 1× read buffer (Meso Scale Discovery, Catalog No. R92TC-1) was added to each well before the plates were analyzed on a Sector Imager 2400 (Meso Scale Discovery) instrument.

Kd [1]: 1.8 nM | koff [1]: 0.00018 s⁻¹ | kon [1]: 120000 M⁻¹ s⁻¹ | Maximum Neutralization (%) [2]: 80.5%
B1: anti-FGFR3 monoclonal antibody 15D8 (antibody, mouse IgG1, kappa)
heavy: EIQLQQSGPELVKPGASVKVSCKASGYAFTSYNMYWVKQSHGKSLEWIGYIDPYNGGTSYNQKFKGKATLTVDKSSSTAYMHLNSLTSEDSAVYYCAREGGNYEAWFAYWGQGTLVTVSAAKTTPPSVYPLAPGSAAQTNSMVTLGCLVKGYFPEPVTVTWNSGSLSSGVHTFPAVLQSDLYTLSSSVTVPSSTWPSETVTCNVAHPASSTKVDKKIVPRDCGCKPCICTVPEVSSVFIFPPKPKDVLTITLTPKVTCVVVDISKDDPEVQFSWFVDDVEVHTAQTQPREEQFNSTFRSVSELPIMHQDWLNGKEFKCRVNSAAFPAPIEKTISKTKGRPKAPQVYTIPPPKEQMAKDKVSLTCMITDFFPEDITVEWQWNGQPAENYKNTQPIMDTDGSYFVYSKLNVQKSNWEAGNTFTCSVLHEGLHNHHTEKSLSHSPGK
light: QIVLTQSPALMSASPGEKVTMTCSASSSVSYMYWYQQKPRSSPKPWIYLTSYLASGVPARFSGSGSGTSYSLTISSMEAEDAATYYCQQWSSYPLTFGAGTKLELKRADAAPTVSIFPPSSEQLTSGGASVVCFLNNFYPKDINVKWKIDGSERQNGVLNSWTDQDSKDSTYSMSSTLTLTKDEYERHNSYTCEATHKTSTSPIVKSFNRNEC
notes: also called 15D8 IgG1; murine antibody 15D8
